The results in this text go back to patent US20030119102A1.

For the test, the target named is T1, rat Kv4.2 α-subunit (rat) (UniProt Q63881).
T1 sequence (looked up): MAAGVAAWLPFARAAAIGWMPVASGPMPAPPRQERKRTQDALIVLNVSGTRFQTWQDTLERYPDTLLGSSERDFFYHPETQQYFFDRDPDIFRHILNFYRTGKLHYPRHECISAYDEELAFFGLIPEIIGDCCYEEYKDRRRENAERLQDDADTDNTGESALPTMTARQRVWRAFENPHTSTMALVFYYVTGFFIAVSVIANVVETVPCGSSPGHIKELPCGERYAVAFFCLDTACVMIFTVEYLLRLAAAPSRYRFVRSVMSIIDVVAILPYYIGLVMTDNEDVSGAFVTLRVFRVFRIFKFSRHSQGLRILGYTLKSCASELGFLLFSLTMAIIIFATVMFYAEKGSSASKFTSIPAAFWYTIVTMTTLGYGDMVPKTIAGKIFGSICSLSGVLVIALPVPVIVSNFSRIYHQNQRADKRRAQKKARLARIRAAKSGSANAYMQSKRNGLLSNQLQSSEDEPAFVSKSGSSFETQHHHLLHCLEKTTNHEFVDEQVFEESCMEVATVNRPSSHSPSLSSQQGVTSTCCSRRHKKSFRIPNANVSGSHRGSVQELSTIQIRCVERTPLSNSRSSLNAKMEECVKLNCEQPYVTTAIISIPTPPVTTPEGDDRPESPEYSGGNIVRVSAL
In words: cell-based or functional assay.

For KChIP2ΔN2-67, the Inactivation time constant (ms, at 50 mV), CHO cells (rKv4.2 + vector: 28.2) turned out to be 110 ms; the Peak Current (nA/cell at 50 mV), CHO cells, patch clamp (rKv4.2 + vector: 0.60) was determined as 5.8 nA/cell; the Peak Current Density (pA/pF at 50 mV), CHO cells (rKv4.2 + vector: 25.5) was 203 pA/pF; the Recovery from Inactivation Time constant, CHO cells (rKv4.2 + vector: 272.2) worked out at 36.1 ms.
